According to patent US12427163B2, “Anti-VTCN1 antibodies and antibody drug conjugates” (Bluefin BioMedicine, Inc., priority 2017, dated 2025):
Changes are numbered by the printed parent chain. One block for each molecule: values may come before it.

Target: T1, human VTCN1 protein (Homo sapiens, UniProt Q7Z7D3)
T1 construct: His
T1 sequence (Q7Z7D3 25-282): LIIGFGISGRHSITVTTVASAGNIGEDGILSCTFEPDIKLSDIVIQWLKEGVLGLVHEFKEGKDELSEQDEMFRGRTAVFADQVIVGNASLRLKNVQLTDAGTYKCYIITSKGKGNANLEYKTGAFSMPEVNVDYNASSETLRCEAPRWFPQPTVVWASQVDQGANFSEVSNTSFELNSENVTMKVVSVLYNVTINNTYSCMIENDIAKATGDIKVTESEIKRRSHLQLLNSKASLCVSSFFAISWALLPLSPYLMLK
Assay: Affinity to recombinant VTCN1-his by OCTET Red (Protein A biosensors)
Format: binding
Conditions: for Kdis (human) / Kon (human): Table 5; for K(off) / k(on): Table 9
Method: The affinity of antibodies to recombinant VTCN1 was determined on an OCTET™ Red (Pall, ForteBio) instrument. After loading reagents into a 96-well plate, the OCTET™ Red with Protein A-conjugated biosensors was programmed as follows: 30 seconds for baseline #1; 45 seconds to immobilize the antibody; 30 seconds for baseline #2; 300 seconds for association of antibody to recombinant VTCN1-his; and 300 seconds for dissociation of recombinant VTCN1-his from the antibody. Table 5 lists the affinity measured for selected antibodies.

B2: hu6D9_57A3: humanized 6D9 antibody; VH SEQ ID NO: 220, VL SEQ ID NO: 224 (antibody, V domains shown)
VH: QVQLVESGGGVVQPGRSLRLSCAVSGFSLTSYGVQWVRQAPGKGLEWLGVIWSSGSTDYNAAFLSRLTISKDNSKNTVYFQMNSLRAEDTAVYYCARDVTTIVEGFAHWGQGTLVTVSS
VL: DIQMTQSPSSLSASVGDRVTITCKASEKVGTYVSWYQQKPGKAPKLLIYGASNRYTGVPSRFSGSGSGTDFTLTISSLQPEDFATYYCGQTYSYPFTFGQGTKLEIK
K(off): 2.27E−03
k(on): 8.21E+04

B3: hu6D9_57A4: humanized 6D9 antibody; VH SEQ ID NO: 228, VL SEQ ID NO: 224 (antibody, V domains shown)
VH: B2 VH with G9P, G49A, N76S
VL: B2 VL
K(off): 2.26E−03
k(on): 6.21E+04

B4: hu6D9_57A5: humanized 6D9 antibody; VH SEQ ID NO: 232, VL SEQ ID NO: 224 (antibody, V domains shown)
VH: B2 VH with G49A
VL: B2 VL
K(off): 2.89E−03
k(on): 8.14E+04

B7: 7F10: mouse anti-human VTCN1 antibody; VH SEQ ID NO: 137, VL SEQ ID NO: 141 (antibody, V domains shown)
VH: QVQLQQSGPGLVQPSQSLSITCTVSGFSLTSYGIHWVRQSPGKGLEWLGVIWSSGSTDYNAAFISRLSISKDNSKSQVFFKMNSLQSDDTAIHYCARDITTIAEGFAYWGQGTLVTVSA
VL: NIVMTQSPKSMSMSVGERVTLSCKASENVGTYVSWYQQKPEQSPKLLIYGASNRYTGVPDRFTGSGSATDFTLTISSVQAEDLADYHCGQSYSYPFTFGSGTKLEIK
Kdis (human): 5.94 × 10^−3
Kon (human): 1.15 × 10^6

The remaining lines, values ahead:

Kdis (human): 4.04 × 10^−3
Kon (human): 9.83 × 10^5
B1: 10D1: mouse anti-human VTCN1 antibody; VH SEQ ID NO: 57, VL SEQ ID NO: 61 (antibody, V domains shown)
VH: QVQLQESGPELVKPGASVKLSCKASGYIFTDYTIHWLKQSPGQGLEWIGWIYPGSGHTHYNDKFKGKATMTADKSSTTAYMQLSSLTSEDSAVFFCARGGESITTVFPLAYWGQGTLVTVSA
VL: DIVMSQSPSSLAVSVGEKVTMSCKSSQSLLYSSDQKNYLAWYQQKPGQSPKLLIYWASTWESGVPDRFIGSGSGTDFTLTVSSVKAEDLAVYYCHQYYSYPPTFGAGTKLEIK

Kdis (human): 7.46 × 10^−3
Kon (human): 9.41 × 10^5
B5: 6E2: mouse anti-human VTCN1 antibody; VH SEQ ID NO: 33, VL SEQ ID NO: 37 (antibody, V domains shown)
VH: QIQLQESGPGLVQPSQSLSITCTVSGFSLTSYGVQWVRQSPGKGLEWLGVIWSGGSTDYNAAFISRLSISKDNSKSQVFFKMNSLQADDTAIYYCARDISTIVEGFAHWGQGTLVTVSS
VL: B7 VL with N28K, S93R

Kdis (human): 1.64 × 10^−3
Kon (human): 3.93 × 10^5
B6: 5A12: mouse anti-human VTCN1 antibody; VH SEQ ID NO: 105, VL SEQ ID NO: 109 (antibody, V domains shown)
VH: B7 VH with I34V, H35Q, S70N, S87P, H93Y, A103V
VL: B7 VL with N1I

Kdis (human): 1.26 × 10^−2
Kon (human): 1.07 × 10^6
B8: 3G10: mouse anti-human VTCN1 antibody; VH SEQ ID NO: 17, VL SEQ ID NO: 21 (antibody, V domains shown)
VH: B5 VH with Q5K, Q35H, S56Y, A61S, S100T, H108Y, S119A
VL: B7 VL with N1I, V19I, S22N, R61H, S91T
